Key:
Assay type in all cases: cell-based, human
[1] = system: wild-type and variant SNAP-GIPR; assay: Surface SNAP-GIPR expression (SNAP-tag labelling) in AD293 cells; details: for AD293 Surface: Fig S3E, mean; for Surface SNAP-GIPR expression: sheet Fig 1C;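 as to all read-outs here: scaled to the experimental average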
Summary of the method: (§1)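 Read-out: whole-cell fluorescence of surface-only SNAP label (Alexa Fluor 647, 500 nM, 10 min, RT), wide-field 20X, several FOVs per well. Flat-field corrected, phase-contrast masked, nontransfected-well signal subtracted; normalized to experiment mean or wild-type.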

[2] = system: wild-type and variant SNAP-GIPR; assay: Surface SNAP-GIPR expression (SNAP-tag labelling) in INS-1 cells; details: Fig 4G; Mean
Summary of the method: as §1

[3] = system: wild-type and variant SNAP-GIPR; assay: Single-concentration GIP cAMP response by HTRF in AD293 cells; details: Fig S3F, HTRF, mean;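 also: ratio to experiment-wide average response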
Description: (§2) All variants were tested in parallel on each occasion to control for transfection efficiency differences between experiments.

[4] = system: wild-type and variant SNAP-GIPR; assay: Single-concentration GIP cAMP response by HTRF in INS-1 cells; details: Fig S3E, mean
Description: as §2

[5] = system: wild-type and variant SNAP-GIPR; assay: cADDis cAMP imaging in AD293 cells, ensemble, expression-matched and per decile; details: Fig S3F, cADDis, mean;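 also: Ensemble cells as % of IBMX/FSK response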
Summary of the method: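 AD293 cells reverse-transfected with wild-type or variant SNAP-GIPR plus cADDis Green Up sensor, variants run in parallel. After 24 h, surface receptor labelled with SNAP-Surface Alexa Fluor 647 (500 nM); single-cell cADDis fluorescence imaged at 37 °C in KRBH, 6 mM glucose, 0.1% BSA. Responses given ensemble, expression-matched by wild-type deciles, or per own decile.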

[6] = system: wild-type and variant SNAP-GIPR; assay: Constitutive and agonist-mediated internalization, reversible SNAP-tag labelling, AD293 cells; design: key to Internalisation, Vehicle / Internalisation, +GIP / Internalisation, GIP-only: % internalization: residual fluorescence after Mesna vs pre-Mesna; Surface expression: unit not given here; details: Mean
Summary of the method: (§3)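 Percentage internalization calculated as specific SNAP fluorescence remaining after 10 min Mesna exposure, relative to pre-Mesna signal, imaged in TNE buffer (pH 8.6).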

[7] = system: wild-type and variant SNAP-GIPR; assay: Constitutive and agonist-mediated internalization, reversible SNAP-tag labelling, INS-1 cells; design: key to Internalisation, GIP-only / Internalisation, Vehicle / Internalisation, +GIP: % internalization: residual fluorescence after Mesna vs pre-Mesna; details: Mean
Summary of the method: as §3

B1: S415G (protein, UniProt P48546 22-466, looked up, variant S415G)
Gastric inhibitory …: RAETGSKGQTAGELYQRWERYRRECQETLAAAEPPSGLACNGSFDMYVCWDYAAPNATARASCPWYLPWHHHVAAGFVLRQCGSDGQWGLWRDHTQCENPEKNEAFLDQRLILERLQVMYTVGYSLSLATLLLALLILSLFRRLHCTRNYIHINLFTSFMLRAAAILSRDRLLPRPGPYLGDQALALWNQALAACRTAQIVTQYCVGANYTWLLVEGVYLHSLLVLVGGSEEGHFRYYLLLGWGAPALFVIPWVIVRYLYENTQCWERNEVKAIWWIIRTPILMTILINFLIFIRILGILLSKLRTRQMRCRDYRLRLARSTLTLVPLLGVHEVVFAPVTEEQARGALRFAKLGFEIFLSSFQGFLVSVLYCFINKEVQSEIRRGWHHCRLRRGLGEEQRQLPERAFRALPSGSGPGEVPTSRGLSSGTLPGPGNEASRELESYC
[1]; column repeated, paired with cAMP 100 nM
  AD293 Surface: 1.467
[1]; paired with cAMP 100 pM
  AD293 Surface: 1.467
[1]; replicate 1
  Surface SNAP-GIPR expression: 1.506
[1]; replicate 2
  Surface SNAP-GIPR expression: 0.2667
[1]; replicate 3
  Surface SNAP-GIPR expression: 1.585
[1]; replicate 4
  Surface SNAP-GIPR expression: 2.194
[1]; replicate 5
  Surface SNAP-GIPR expression: 1.195
[1]; replicate 6
  Surface SNAP-GIPR expression: 1.281
[1]; replicate 7
  Surface SNAP-GIPR expression: 1.352
[1]; replicate 8
  Surface SNAP-GIPR expression: 1.443
[1]; replicate 9
  Surface SNAP-GIPR expression: 1.419
[1]; replicate 10
  Surface SNAP-GIPR expression: 1.583
[1]; replicate 11
  Surface SNAP-GIPR expression: 1.553
[1]; replicate 12
  Surface SNAP-GIPR expression: 1.476
[1]; replicate 13
  Surface SNAP-GIPR expression: 2.028
[1]; replicate 14
  Surface SNAP-GIPR expression: 1.05
[1]; replicate 15
  Surface SNAP-GIPR expression: 1.445
[1]; replicate 16
  Surface SNAP-GIPR expression: 1.582
[1]; replicate 17
  Surface SNAP-GIPR expression: 1.552
[1]; replicate 18
  Surface SNAP-GIPR expression: 1.539
[1]; replicate 19
  Surface SNAP-GIPR expression: 1.754
[1]; replicate 20
  Surface SNAP-GIPR expression: 1.368
[1]; replicate 21
  Surface SNAP-GIPR expression: 1.348
[1]; replicate 22
  Surface SNAP-GIPR expression: 1.435
[1]; replicate 23
  Surface SNAP-GIPR expression: 1.476
[1]; replicate 24
  Surface SNAP-GIPR expression: 1.595
[1]; replicate 25
  Surface SNAP-GIPR expression: 1.677
[1]; replicate 26
  Surface SNAP-GIPR expression: 1.136
[1]; replicate 27
  Surface SNAP-GIPR expression: 1.395
[1]; replicate 28
  Surface SNAP-GIPR expression: 1.292
[1]; replicate 29
  Surface SNAP-GIPR expression: 1.605
[1]; replicate 30
  Surface SNAP-GIPR expression: 1.394
[1]; replicate 31
  Surface SNAP-GIPR expression: 1.688
[1]; replicate 32
  Surface SNAP-GIPR expression: 1.36
[1]; replicate 33
  Surface SNAP-GIPR expression: 1.647
[1]; replicate 34
  Surface SNAP-GIPR expression: 1.582
[1]; replicate 35
  Surface SNAP-GIPR expression: 1.005
[1]; replicate 36
  Surface SNAP-GIPR expression: 1.822
[1]; replicate 37
  Surface SNAP-GIPR expression: 1.489
[1]; replicate 38
  Surface SNAP-GIPR expression: 1.364
[1]; replicate 39
  Surface SNAP-GIPR expression: 0.9756
[1]; replicate 40
  Surface SNAP-GIPR expression: 1.792
[1]; replicate 41
  Surface SNAP-GIPR expression: 1.893
[2]
  Surface expression: 1.381
[3]; AD293, 100 pM
  AD293 100 pM HTRF: 1.117
[3]; AD293, 100 nM
  AD293 100 nM HTRF: 1.323
[4]
  INS-1 cAMP (100 nM): 1.389
[5]; AD293, 100 pM
  AD293 100 pM cADDis: 34.3916
[5]; AD293, 100 nM
  AD293 100 nM cADDis: 37.46
[6]; Fig 4E, GIP 100 nM
  +GIP internalisation (100 nM): 0.8449
  GIP-specific internalisation (100 nM): 0.2187
[6]; Fig 4E
  Constitutive internalisation (100 nM): 0.6262
  Surface expression: 1.57
[6]; Fig S4C, AD293
  Internalisation, +GIP: 54.2947
  Internalisation, GIP-only: 14.1911
  Internalisation, Vehicle: 40.1036
[7]; Fig 4G, GIP 100 nM
  +GIP internalisation (100 nM): 0.6865
  GIP-specific internalisation (100 nM): 0.178
[7]; Fig 4G
  Constitutive internalisation (100 nM): 0.5085
[7]; Fig S4C, INS-1
  Internalisation, +GIP: 49.94
  Internalisation, GIP-only: 12.7417
  Internalisation, Vehicle: 37.1983
